Residue numbers refer to the chain shown, from its start. Names may count otherwise.
B1: R220A: A2aR point mutant (protein, UniProt P29274 1-412, looked up, variant R220A)
Adenosine receptor A2a: MPIMGSSVYITVELAIAVLAILGNVLVCWAVWLNSNLQNVTNYFVVSLAAADIAVGVLAIPFAITISTGFCAACHGCLFIACFVLVLTQSSIFSLLAIAIDRYIAIRIPLRYNGLVTGTRAKGIIAICWVLSFAIGLTPMLGWNNCGQPKEGKNHSQGCGEGQVACLFEDVVPMNYMVYFNFFACVLVPLLLMLGVYLRIFLAARRQLKQMESQPLPGEAARSTLQKEVHAAKSLAIIVGLFALCWLPLHIINCFTFFCPDCSHAPLWLMYLAIVLSHTNSVVNPFIYAYRIREFRQTFRKIIRSHVLRQQEPFKAAGTSARVLAAHGSDGEQVSLRLNGHPPGVWANGSAPHPERRPNGYALGLVSGGSAQESQGNTGLPDVELLSHELKGVCPEPPGLDDPLAQDGAGVS
B2: H230A: A2aR point mutant (protein, UniProt P29274 1-412, looked up, variant H230A)
Adenosine receptor A2a: B1 Adenosine receptor A2a with A220R, H230A
B3: L272A: A2aR point mutant (protein, UniProt P29274 1-412, looked up, variant L272A)
Adenosine receptor A2a: B1 Adenosine receptor A2a with A220R, L272A
B4: P260A: A2aR point mutant (protein, UniProt P29274 1-412, looked up, variant P260A)
Adenosine receptor A2a: B1 Adenosine receptor A2a with A220R, P260A
B5: P313A: A2aR point mutant (protein, UniProt P29274 1-412, looked up, variant P313A)
Adenosine receptor A2a: B1 Adenosine receptor A2a with A220R, P313A
B6: L267A: A2aR point mutant (protein, UniProt P29274 1-412, looked up, variant L267A)
Adenosine receptor A2a: B1 Adenosine receptor A2a with A220R, L267A
B7: Q226A: A2aR point mutant (protein, UniProt P29274 1-412, looked up, variant Q226A)
Adenosine receptor A2a: B1 Adenosine receptor A2a with A220R, Q226A
B8: N284A: A2aR point mutant (protein, UniProt P29274 1-412, looked up, variant N284A)
Adenosine receptor A2a: B1 Adenosine receptor A2a with A220R, N284A
B9: K227A: A2aR point mutant (protein, UniProt P29274 1-412, looked up, variant K227A)
Adenosine receptor A2a: B1 Adenosine receptor A2a with A220R, K227A
B10: Q311A: A2aR point mutant (protein, UniProt P29274 1-412, looked up, variant Q311A)
Adenosine receptor A2a: B1 Adenosine receptor A2a with A220R, Q311A
B11: S223A: A2aR point mutant (protein, UniProt P29274 1-412, looked up, variant S223A)
Adenosine receptor A2a: B1 Adenosine receptor A2a with A220R, S223A
B12: L241A: A2aR point mutant (protein, UniProt P29274 1-412, looked up, variant L241A)
Adenosine receptor A2a: B1 Adenosine receptor A2a with A220R, L241A
B13: Rant17: A2aR mutant A54L+K122A+L235A (protein, UniProt P29274 1-412, looked up, variant A54L K122A L235A)
Adenosine receptor A2a: B1 Adenosine receptor A2a with A54L, K122A, A220R, L235A
B14: T224A: A2aR point mutant (protein, UniProt P29274 1-412, looked up, variant T224A)
Adenosine receptor A2a: B1 Adenosine receptor A2a with A220R, T224A
B15: S263A: A2aR point mutant (protein, UniProt P29274 1-412, looked up, variant S263A)
Adenosine receptor A2a: B1 Adenosine receptor A2a with A220R, S263A

Assay: Thermostability of A2aR and mutants (ligand binding after or during heating)
Format: physicochemical
Conditions: for thermostability measured with 3H-NECA (agonist): Ligand(−) format, binding after the heating step
From the text: FIG. 12 Flow chart showing the two different assay formats of ligand (+) and ligand (−) used to determine receptor thermostability.
• 1. 315 site-directed mutants made between residues 2-316 of A2aR. • 2. All of these mutants have been assayed for thermostability using an assay measuring agonist and antagonist binding after the heating step (Ligand(−) format as described in FIG. 12). • a. […] Mutations have been combined to generate mutants in a putative antagonist conformation. Wildtype A2aR has a Tm of 31° C. with ZM241385 bound. • a. Rant17 A54L+K122A+L235A Tm 48° C. (ZM241385 bound) • b. Rant19 A54L, T88A, V239A+A204L Tm 47° C. (ZM241385 bound) • c. Rant21 A54L, T88A, V239A+K122A Tm 49° C. (ZM241385 bound) • 4. Mutations from the agonist screen have been combined, but have led to only a very low level of improvement in Tm of +2° C.

| Molecule | thermostability measured with 3H-NECA (agonist) | Tm (ZM241385 bound) |
| --- | --- | --- |
| B1 | improved thermostability | – |
| B2 | improved thermostability | – |
| B3 | improved thermostability | – |
| B4 | improved thermostability | – |
| B5 | improved thermostability | – |
| B6 | improved thermostability | – |
| B7 | improved thermostability | – |
| B8 | improved thermostability | – |
| B9 | improved thermostability | – |
| B10 | improved thermostability | – |
| B11 | improved thermostability | – |
| B12 | improved thermostability | – |
| B13 | – | 48 °C |
| B14 | improved thermostability | – |
| B15 | improved thermostability | – |

— patent US8785135B2, “Mutant G-protein coupled receptors and methods for selecting them” (Heptares Therapeutics Limited, priority 2007, dated 2014)
